Columns and labels:
RXR-alpha = RXR-alpha (UniProt P19793 P19793:1-462); test: EMSA; RXR alone did not produce the receptor-specific shift; conditions: tags: reticulocyte lysate from pBluescript(II)(SK) RXR-alpha cDNA; label: end-labeled
Text: (§1) In vitro translated RAR-α was produced essentially as described under Example 8, except that ^35S-labeled methoinine was omitted. In vitro translated RXR-α was similarly produced using a pBluescript(II)(SK)-based vector containing the RXR-α cDNA described by Mangelsdorf, et al. in *Nature* 345:224–229 (1990) as the template for generating in vitro transcripts. The labeled RAR-α and RXR-α, alone or in combination, or prebound with AGN 193109 (10^-6M) either alone or in combination, were allowed to interact with an end-labeled DR-5 RARE double-stranded probe having the sequence 5'-[…]-3' (SEQ ID NO:1). The binding mixture was electrophoresed on a non-denaturing polyacrylamide gel and autoradiographed according to standard laboratory procedures. A single retarded species appearing on the autoradiograph that was common to all the lanes on the gel represented an undefined probe-binding factor present in the reticulocyte lysate. Only the RAR/RXR combination gave rise to a retinoid receptor-specific retarded species. Neither RAR alone nor RXR alone bound the probe to produce this shifted species.

RAR-alpha = target: T1, RAR-alpha (UniProt P10276 P10276:1-462); test: EMSA; RAR alone did not produce the receptor-specific shift; conditions: tags: TNT reticulocyte lysate from pGEM3Z RAR-alpha cDNA; label: end-labeled
T1 sequence: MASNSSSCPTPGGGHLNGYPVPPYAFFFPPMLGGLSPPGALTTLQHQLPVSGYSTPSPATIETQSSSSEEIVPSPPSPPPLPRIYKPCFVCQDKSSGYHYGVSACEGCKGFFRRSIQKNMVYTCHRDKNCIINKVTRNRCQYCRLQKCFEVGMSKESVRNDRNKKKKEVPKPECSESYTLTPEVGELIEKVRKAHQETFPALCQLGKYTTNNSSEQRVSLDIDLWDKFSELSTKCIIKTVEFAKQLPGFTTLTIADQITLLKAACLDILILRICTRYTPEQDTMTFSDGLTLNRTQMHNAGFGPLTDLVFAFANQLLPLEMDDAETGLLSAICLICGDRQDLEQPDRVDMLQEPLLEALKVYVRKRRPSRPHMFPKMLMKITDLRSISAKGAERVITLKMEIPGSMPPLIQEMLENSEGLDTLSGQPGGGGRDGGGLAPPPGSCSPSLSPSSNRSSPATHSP
Text: as §1

Sequence of RXR-alpha (P19793 whole entry, one chain of several): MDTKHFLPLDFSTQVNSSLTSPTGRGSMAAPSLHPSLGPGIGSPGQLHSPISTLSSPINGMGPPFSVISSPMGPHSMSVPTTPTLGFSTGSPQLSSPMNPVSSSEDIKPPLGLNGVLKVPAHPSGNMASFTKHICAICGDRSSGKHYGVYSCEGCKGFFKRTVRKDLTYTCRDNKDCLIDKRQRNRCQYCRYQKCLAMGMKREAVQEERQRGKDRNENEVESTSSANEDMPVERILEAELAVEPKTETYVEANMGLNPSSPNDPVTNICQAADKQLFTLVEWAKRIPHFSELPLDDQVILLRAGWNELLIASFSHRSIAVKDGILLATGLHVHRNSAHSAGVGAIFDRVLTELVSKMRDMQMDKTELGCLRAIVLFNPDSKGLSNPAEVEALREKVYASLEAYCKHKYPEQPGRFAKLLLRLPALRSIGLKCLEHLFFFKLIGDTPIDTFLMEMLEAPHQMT

B1: DR-5 RARE probe (dsDNA)
DNA 1: TCAGGTCACCAGGAGGTCAGA
DNA 2: TCTGACCTCCTGGTGACCTGA
- binding result (RXR-alpha): no binding
- binding result (RAR-alpha): no binding

From patent US5958954, “Synthesis and use of retinoid compounds having negative hormone and/or antagonist activities” (Allergan Sales, Inc.)
